Positions count from the first letter of the chain named. Names may count otherwise. Read-outs that look alike come from different tables or passages of the source.
Tests used:
[1] = biological target: CATPO T188A variant (Scytalidium thermophilum (Humicola insolens), UniProt M4GGR5, T207A); test: biochemical; conditions: catechol oxidation by T188A; read-out: K i
[2] = biological target: CATPO T188F variant (Scytalidium thermophilum (Humicola insolens), UniProt M4GGR5, T207F); test: biochemical; conditions: catechol oxidation by T188F; read-out: K i
[3] = biological target: CATPO E484I variant (Scytalidium thermophilum (Humicola insolens), UniProt M4GGR5, E503I); test: biochemical; conditions: catechol oxidation by E484I; read-out: K i
[4] = biological target: mammalian catalase; parameters: method as in Vetrano et al., 2005; conditions: ref Vetrano et al., 2005; cited from earlier work
[5] = biological target: CATPO E484D variant (Scytalidium thermophilum (Humicola insolens), UniProt M4GGR5, E503D); test: biochemical; conditions: catechol oxidation by E484D; read-out: K i
[6] = biological target: CATPO E484A variant (Scytalidium thermophilum (Humicola insolens), UniProt M4GGR5, E503A); test: biochemical; conditions: catechol oxidation by E484A; read-out: K i
[7] = biological target: CATPO (Scytalidium thermophilum (Humicola insolens), UniProt M4GGR5); test: Inhibition of catechol oxidation; assay type: biochemical
[8] = biological target: CATPO T188I variant (Scytalidium thermophilum (Humicola insolens), UniProt M4GGR5, T207I); test: biochemical; conditions: catechol oxidation by T188I; read-out: K i
[9] = biological target: CATPO T188D variant (Scytalidium thermophilum (Humicola insolens), UniProt M4GGR5, T207D); test: biochemical; conditions: catechol oxidation by T188D; read-out: K i
[10] = tested on: CATPO variants; test: Effects on the phenol oxidase activity of the CATPO variants taken together; assay type: biochemical, Scytalidium thermophilum; conditions: hydrogen peroxide 1–100 mM or ethanol 2–200 mM, before or after the addition of catechol
Description: (§1) All inhibition assays were performed in triplicate.

[11] = substrate: CCn1c(=NN=c2sc3cc(S(=O)(=O)O)ccc3n2CC)sc2cc(S(=O)(=O)O)ccc21; test: purified protein, by the assay type; conditions: 60.0 °C
[12] = substrate: Oc1ccccc1O; test: Phenol oxidase activity (H2O2-independent) measured spectrophotometrically by product formation at pH 7.0, 60 C, Michaelis-Menten fit.; assay type: biochemical
Description: as §1

[13] = substrate: CC(C)(C)c1ccc(O)c(O)c1; test: Spectrophotometric phenol oxidase assay without H2O2 at pH 7.0 and 60 °C, initial rates fitted to the Michaelis-Menten equation.; assay type: biochemical
Description: as §1

[14] = substrate: Cc1ccc(O)c(O)c1; test: as above; assay type: biochemical
Description: as §1

[15] = substrate: Oc1ccc(O)cc1; test: as above; assay type: biochemical
Description: as §1

[16] = substrate: Oc1ccccc1O; test: Spectrophotometric catechol oxidation assay at 420 nm, pH 7.0 and 60 °C; values not normalized to heme content.; assay type: biochemical
Description: as §1
Tabl e S1 Comparison of gate residues at the entrance of the main channel among large subunit […]
PDB ID e Organism Gate residues
Tabl e S2 K i neti c const ant s
**Catalase activity **Phenol oxidase activity
*KM-app kcat kcat/*KM-app KM kcat kcat/KM
(mM) (s-1) (s-1 M-1) (mM) (s-1) (s-1 M-1) Rz Heme
RZ = A407/A280. T he values were normalized to heme content in each CAT PO variant. T he values in parentheses are for unnor malized val ues a nd shaded in gre y for ease of vie wi ng. *KM-app is the H2O2 concentratio n at Vmax/2 […]
Michaelis–Menten kinetics (Switala & Loewen, 2002).
**One unit of catalase is defined as the amo unt that catalyses the degradation o f 1 µmol H2O2 in 1 min. One unit of phenol oxidase corresponds to the enzyme catalysing the formation of 1 nmol of product per minute.

[17] = substrate: Oc1ccccc1O; test: Phenol oxidase activity (H2O2-independent) measured spectrophotometrically by product formation at pH 7.0, 60 C, Michaelis-Menten fit.; assay type: biochemical; remark: listed apart in the source

Chain of CATPO (M4GGR5 entry or part of it): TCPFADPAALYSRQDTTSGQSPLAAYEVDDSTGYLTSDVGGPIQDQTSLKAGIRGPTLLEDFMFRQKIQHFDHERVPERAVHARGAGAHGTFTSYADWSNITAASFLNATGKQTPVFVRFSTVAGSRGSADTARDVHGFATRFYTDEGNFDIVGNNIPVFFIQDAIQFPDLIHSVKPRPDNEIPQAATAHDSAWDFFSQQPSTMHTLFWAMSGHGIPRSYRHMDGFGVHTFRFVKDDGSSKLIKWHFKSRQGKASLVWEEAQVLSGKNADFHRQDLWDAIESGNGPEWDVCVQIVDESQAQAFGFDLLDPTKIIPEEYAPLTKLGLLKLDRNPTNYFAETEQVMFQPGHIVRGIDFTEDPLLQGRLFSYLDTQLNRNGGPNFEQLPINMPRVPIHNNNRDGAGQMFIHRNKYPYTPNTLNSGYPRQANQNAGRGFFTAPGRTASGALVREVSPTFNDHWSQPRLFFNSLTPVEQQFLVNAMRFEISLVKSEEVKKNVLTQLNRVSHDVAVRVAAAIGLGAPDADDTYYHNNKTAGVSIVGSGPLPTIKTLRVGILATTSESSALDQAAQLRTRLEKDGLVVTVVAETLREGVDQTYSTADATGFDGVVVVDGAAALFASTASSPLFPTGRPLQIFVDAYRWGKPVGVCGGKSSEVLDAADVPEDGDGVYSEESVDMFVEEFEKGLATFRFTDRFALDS
Chain of CATPO T188F variant (M4GGR5 entry or part of it T207F): as the sequence (M4GGR5 entry or part of it) above
Chain of CATPO T188D variant (M4GGR5 entry or part of it T207D): as the sequence (M4GGR5 entry or part of it) above
Chain of CATPO E484I variant (M4GGR5 entry or part of it E503I): as the sequence (M4GGR5 entry or part of it) above
Chain of CATPO T188A variant (M4GGR5 entry or part of it T207A): as the sequence (M4GGR5 entry or part of it) above
Chain of CATPO E484A variant (M4GGR5 entry or part of it E503A): as the sequence (M4GGR5 entry or part of it) above
Chain of CATPO E484D variant (M4GGR5 entry or part of it E503D): as the sequence (M4GGR5 entry or part of it) above
Chain of CATPO T188I variant (M4GGR5 entry or part of it T207I): as the sequence (M4GGR5 entry or part of it) above

With `[F-].[Na+]` [NaF, sodium fluoride] as the molecule, how does the Ki [1] read?
The Ki was 0.65 ± 0.1 mM.

And the Ki [2]?
Its Ki is 6.4 ± 0.4 mM.

What about the Ki [3] of the same molecule?
The Ki was 5.5 ± 0.2 mM.

And the Ki [4]?
The Ki was 0.75 mM.

What about the inhibition type [4] of the same molecule?
Its inhibition type is “uncompetitive”.

And the Ki [5]?
Its Ki is 0.66 ± 0.1 mM.

And the Ki [6]?
The Ki was 7.8 ± 1.1 mM.

What about the inhibition type ([7]; catechol oxidase activity of wild-type CATPO, Lineweaver–Burk) of the same molecule?
Its inhibition type is “uncompetitive”.

And the Ki ([7]; catechol oxidation by CATPO, catechol 1 to 100 mM, read-out: K i)?
Its Ki is 0.67 ± 0.1 mM.

And the Ki [8]?
Its Ki is 5.8 ± 0.4 mM.

And the Ki [9]?
The Ki was 5 ± 0.5 mM.

Which “effect of addition on phenol oxidase activity” value [10] does the source give for `CCO` [ethanol] here?
Its value is “not affected”.

With `OO` [hydrogen peroxide] as the molecule, how does the “effect of addition on phenol oxidase activity” value [10] read?
Its value is “not affected”.

B1: T188D (Mycothermus thermophilus; T207D) (protein)
chain: TCPFADPAALYSRQDTTSGQSPLAAYEVDDSTGYLTSDVGGPIQDQTSLKAGIRGPTLLEDFMFRQKIQHFDHERVPERAVHARGAGAHGTFTSYADWSNITAASFLNATGKQTPVFVRFSTVAGSRGSADTARDVHGFATRFYTDEGNFDIVGNNIPVFFIQDAIQFPDLIHSVKPRPDNEIPQAADAHDSAWDFFSQQPSTMHTLFWAMSGHGIPRSYRHMDGFGVHTFRFVKDDGSSKLIKWHFKSRQGKASLVWEEAQVLSGKNADFHRQDLWDAIESGNGPEWDVCVQIVDESQAQAFGFDLLDPTKIIPEEYAPLTKLGLLKLDRNPTNYFAETEQVMFQPGHIVRGIDFTEDPLLQGRLFSYLDTQLNRNGGPNFEQLPINMPRVPIHNNNRDGAGQMFIHRNKYPYTPNTLNSGYPRQANQNAGRGFFTAPGRTASGALVREVSPTFNDHWSQPRLFFNSLTPVEQQFLVNAMRFEISLVKSEEVKKNVLTQLNRVSHDVAVRVAAAIGLGAPDADDTYYHNNKTAGVSIVGSGPLPTIKTLRVGILATTSESSALDQAAQLRTRLEKDGLVVTVVAETLREGVDQTYSTADATGFDGVVVVDGAAALFASTASSPLFPTGRPLQIFVDAYRWGKPVGVCGGKSSEVLDAADVPEDGDGVYSEESVDMFVEEFEKGLATFRFTDRFALDS
notes: recombinant, pET-28-TEV-CATPO; contains heme b; Rz 0.5
Which results are given for B1?
Km [11]: 55 ± 1.0 mM; Km [12]: 25 ± 1.5 mM; kcat [12]: 22300 ± 669 s⁻¹; kcat/Km [12]: 890000 ± 7000 M⁻¹ s⁻¹; Km [13]: 38 ± 0.5 mM; Km [14]: 30 ± 0.1 mM; Km [15]: 46 ± 1.0 mM; Km [16]: 33 mM

B2: CATPO (Mycothermus thermophilus) (protein)
chain: B1 chain with D188T
notes: recombinant, pET-28-TEV-CATPO; contains heme d; Rz 0.8
Which results are given for B2?
Km [11]: 50 ± 1.5 mM; Km [13]: 36 ± 1.0 mM; Km [14]: 35 ± 0.3 mM; Km [15]: 45 ± 1.5 mM; Km [17]: 33 ± 0.5 mM; kcat [17]: 7300 ± 365 s⁻¹; kcat/Km [17]: 220000 ± 13000 M⁻¹ s⁻¹

B3: T188I (Mycothermus thermophilus; T207I) (protein)
chain: B1 chain with D188I
notes: recombinant, pET-28-TEV-CATPO; contains heme b; Rz 0.4
Which Km [11] does the source give for B3 here?
Its Km is 48 ± 0.7 mM.

What about the Km [12] of the same molecule?
Its Km is 31 ± 0.5 mM.

And the kcat [12]?
The kcat was 28400 ± 1100 s⁻¹.

What about the kcat/Km [12] of the same molecule?
Its kcat/Km is 920000 ± 4500 M⁻¹ s⁻¹.

What about the Km [13] of the same molecule?
The Km was 35 ± 0.5 mM.

And the Km [14]?
The Km was 34 ± 1.2 mM.

What about the Km [15] of the same molecule?
The Km was 44 ± 0.4 mM.

What about the Km [16] of the same molecule?
Its Km is 40 mM.
